The values that follow come from article PMC13287468, “Newton’s cradle-like allosteric mechanism explains regulatory RsmE RNA binding”.

Data set [1] deals with T1, RsmE P64W (Pseudomonas protegens, UniProt P0DPC3, P64W).
T1 sequence: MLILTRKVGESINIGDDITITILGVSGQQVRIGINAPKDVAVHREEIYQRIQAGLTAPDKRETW
In words: ITC; 50 mM potassium phosphate pH 7.2, 10 mM NaCl, 298 K; 10 uM monomer in the cell. Particulars: tags: C-His6 (kept); chain copies: 2; hairpin; 1 RNA per protein dimer. Background: ITC needs no label: the signal is the heat of the interaction.

Data set [2] concerns the target T1, RsmE P64W. Description: ITC; 50 mM potassium phosphate pH 7.2, 30 mM NaCl, 298 K; 10 uM monomer in the cell. As to conditions: tags: C-His6 (kept); chain copies: 2; hairpin; 1 RNA per protein dimer.
Data set [3] has as its target T1, RsmE P64W. Description: ITC; 50 mM potassium phosphate pH 7.2, 100 mM NaCl, 298 K; 10 uM monomer in the cell. Particulars: tags: C-His6 (kept); chain copies: 2; hairpin; 1 RNA per protein dimer.
Data set [4] deals with T1, RsmE P64W. Description: ITC; 50 mM potassium phosphate pH 7.2, 300 mM NaCl, 298 K; 10 uM monomer in the cell. Particulars: tags: C-His6 (kept); chain copies: 2; hairpin; 1 RNA per protein dimer.
In data set [5] the target is T1, RsmE P64W. In words: ITC; other site of the dimer holds one SL2 RNA; 50 mM potassium phosphate pH 7.2, 10 mM NaCl, 298 K; 10 uM monomer in the cell. As to conditions: tags: C-His6 (kept); chain copies: 2; hairpin; 2 copies of the RNA per protein dimer, value for the second.
Data set [6] addresses T1, RsmE P64W. In words: ITC; other site of the dimer holds one SL2 RNA; 50 mM potassium phosphate pH 7.2, 30 mM NaCl, 298 K; 10 uM monomer in the cell. As to conditions: tags: C-His6 (kept), chain copies: 2.
Data set [7] addresses T1, RsmE P64W. Description: ITC; other site of the dimer holds one SL2 RNA; 50 mM potassium phosphate pH 7.2, 100 mM NaCl, 298 K; 10 uM monomer in the cell. As to conditions: tags: C-His6 (kept); chain copies: 2; hairpin; 2 copies of the RNA per protein dimer, value for the second.
The target of data set [8] is T1, RsmE P64W. In words: ITC; other site of the dimer holds one SL2 RNA; 50 mM potassium phosphate pH 7.2, 300 mM NaCl, 298 K; 10 uM monomer in the cell. Particulars: tags: C-His6 (kept); chain copies: 2; hairpin; 2 copies of the RNA per protein dimer, value for the second.
Data set [9] has as its target T2, RsmE dimer (P64W, C-terminal His6) (UniProt P0DPC3 1-64, P64W).
T2 sequence: T1 sequence
In words: ITC; apo RsmE dimer, first site; 30 mM NaCl, 50 mM potassium phosphate pH 7.2; ITC at 298 K (NaCl varied in Supp. Fig. 8), RNA titrated into 10 uM RsmE monomer, sequential two-site model; NMR at 303/313 K with 3% D2O. As to conditions: protein: recombinant; tags: C-terminal 6xHis; chain copies: 2; hairpin.

In data set [10] the target is T2, RsmE dimer (P64W, C-terminal His6). Description: NMR; 1:1 semi-holo complex; no minor conformations; 30 mM NaCl, 50 mM potassium phosphate pH 7.2; ITC at 298 K (NaCl varied in Supp. Fig. 8), RNA titrated into 10 uM RsmE monomer, sequential two-site model; NMR at 303/313 K with 3% D2O. Particulars: protein: recombinant; tags: C-terminal 6xHis; chain copies: 2; hairpin, 4 bp stem.

In data set [11] the target is T1, RsmE P64W. In words: ITC; other site of the dimer holds one hcnA RNA; 50 mM potassium phosphate pH 7.2, 30 mM NaCl, 298 K; 10 uM monomer in the cell. As to conditions: tags: C-His6 (kept); chain copies: 2; hairpin; 2 copies of the RNA per protein dimer, value for the second.
In data set [12] the target is T2, RsmE dimer (P64W, C-terminal His6). In words: ITC; first site (Kd1); 30 mM NaCl; text: likely upper bound, true value may be <1 nM; 30 mM NaCl, 50 mM potassium phosphate pH 7.2; ITC at 298 K (NaCl varied in Supp. Fig. 8), RNA titrated into 10 uM RsmE monomer, sequential two-site model; NMR at 303/313 K with 3% D2O. Particulars: protein: recombinant; tags: C-terminal 6xHis; chain copies: 2; hairpin, hexaloop.

Data set [13] addresses T1, RsmE P64W. Description: ITC; other site of the dimer holds one 4bpSL2 RNA; 50 mM potassium phosphate pH 7.2, 30 mM NaCl, 298 K; 10 uM monomer in the cell. As to conditions: tags: C-His6 (kept); chain copies: 2; hairpin; 2 copies of the RNA per protein dimer, value for the second.

A value given as a limit tells only on which side of the number the result lay.

As to GGGCCAUCAAGGACGAUGGUCC (ssRNA, T7 transcript (5' triphosphate expected)) [SL2], the Kd – broadly, the free concentration of one partner at which half of the binding sites on the other are occupied at equilibrium, for simple one-to-one binding – in data set [1] was less than 0.943 nM; in [2] it was less than 1.45 nM; in data set [3], 5.71 ± 1.35 nM; in data set [4], 15.4 ± 1.51 nM; in data set [5], 22.3 ± 2.06 nM; in [6] (hairpin, 2 copies of the RNA per protein dimer, value for the second), 31.1 ± 2.78 nM. Moreover, the Kd in data set [7] turned out to be 64.2 ± 3.23 nM; in data set [8], 118 ± 4.14 nM.
On to GGGCUUCACGGAUGAAGCCC (structured_RNA) [hcnA SD RNA], for which the equilibrium dissociation constant (Kd) in data set [9] is approximately 10 nM.
Consider GGAUCAAGGACGAUCC (structured_RNA) [4bpSL2 RNA], for which the binding result in data set [10] is recorded as “binds”.

B1: hcnA SD (ssRNA)
RNA 1: GGGCUUCACGGAUGAAGCCC
RNA 2: GGGCCAUCAAGGACGAUGGUCC
modifications: T7 transcript (5' triphosphate expected)
With B1, the Kd in data set [6] (two separate hairpins, one per site) was 297 ± 11.4 nM.
GGGCUUCACGGAUGAAGCCC (ssRNA, T7 transcript (5' triphosphate expected)): the Kd in data set [2] turned out to be 8.67 ± 2.02 nM; in data set [11], 218 ± 12.8 nM.
In the case of GGGCCAUCAAGGACGAUGGUCC (structured_RNA) [SL2 RNA (RsmZ)], the Kd in data set [12] amounted to 1.4 nM.
Turning to GGAUCAAGGACGAUCC (ssRNA, T7 transcript (5' triphosphate expected)) [4bpSL2], the Kd was 21.6 ± 2.56 nM in data set [2] and 97.2 ± 3.58 nM in data set [13].
